The target of test [1] is T1, S-TNF, human TNFα fusion protein with an N-terminal S-Tag (human, UniProt P01375 77-233).
T1 construct: Made by the applicants; not shown: 15 amino acid S-Tag peptide (Novagen)
As to the kind of experiment: indirect ELISA: sp55 from conditioned medium captured on Ni-NTA wells, S-TNF at 1 µg/mL, detection with S-protein-HRP, absorbance at 370 nm.

The target of test [2] is T2, biotinylated target peptide NH2-YPYDVPDYAGSGDYKAFD containing the high affinity HA epitope (also: biotinylated, position not given here).
T2 construct: also called the peptide
T2 peptide: YPYDVPDYAGSGDYKAFD
The test is described as follows: sandwich ELISA: component captured on anti-myc (mAb 9E10) plates, biotinylated peptide detected with streptavidin-HRP.

Where no end group is shown, it is not given here.

T1 sequence (P01375 77-233): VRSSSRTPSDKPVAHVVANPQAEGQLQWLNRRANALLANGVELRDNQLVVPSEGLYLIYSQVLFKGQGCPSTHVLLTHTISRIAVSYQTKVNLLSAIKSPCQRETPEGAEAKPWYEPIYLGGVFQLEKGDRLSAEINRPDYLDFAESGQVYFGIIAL

B1: sp55, full-length ecto-domain of human TNFR-1 (residues 30-211) with C-terminal myc and His6 tags, expressed from pSecTag2A (receptor)
chain: DAAQPARRAVRSLVPHLGDREKRDSVCPQGKYIHPQNNSICCTKCHKGTYLYNDCPGPGQDTDCRECESGSFTASENHLRHCLSCSKCRKEMGQVEISSCTVDRDTVCGCRKNQYRHYWSENLFQCFNCSLCLNGTVHLSCQEKQNTVCTCHAGFFLRENECVSCSNCKKSLECTKLCLPQIENVKGTEDSGTTRGGPEQKLISEEDLNSAVDHHHHHH
notes: also called sp55 address domain; p55FL
On to B1, for which the “fold elevation of S-TNF binding over non-specific binding in control samples” value in test [1] turned out to be 3 fold.

B2: scFvαHA, single chain antibody derived from monoclonal antibody mAb26/9 (address domain alone, expressed from pSecTag2A with C-terminal myc and His6 tags) (scFv, not shown: small tags and cut ends)
scFv: MEVQLLESGGDLVKPGGSLKLSCAASGFTFSTYGMSWVRQTPDKRLEWVATISNGGGYTYYPDSVKGRFTISRDNAKNTLYLQMSSLKSEDTAMYYCARRERYDENGFAYWGRGTLVTVSAGGGGSGGGGSGGGGSDIVMSQSPSSLAVSVGEKITMSCKSSQSLFNSGKQKNYLTWYQQKPGQSPKLLIYWASTRESGVPDRFTGSGSGTDFTLTISSVKAEDLAVYYCQNDYSHPLTFGGGTKLEIKRADAAPT
notes: also called scHA; scFv anti-HA
Consider B2, for which, in test [2], the binding result is “binds”.
